The values below come from paper PMC6547806.

The test has as its target Angiomotin (Amot80) coiled-coil homology (ACCH) domain, wild type. As to the kind of experiment: SEC. In general terms: SEC sorts molecules by how far they enter the pores of the column.

For orientation: stoichiometry N means a count of units in the complex or per binding partner.

Turning to “Angiomotin (Amot80) coiled-coil homology (ACCH) domain, wild type (domain or fragment)”, the stoichiometry N came out at 4.
